Measured values taken from publication PMC8079274, “Calmodulin influences MAPK signaling by binding KSR1” (The Journal of Biological Chemistry, 2021).

Columns and labels:
[1] = molecular target: T1, calmodulin-Sepharose (calmodulin coupled to Sepharose beads) (UniProt P0DP23 1-149); test: pull-down; 500 ng purified His-KSR1 with 30 μl calmodulin-Sepharose or GST-Sepharose, lysis buffer B (50 mM Tris-HCl pH 7.4, 150 mM NaCl, 1% Triton-X 100) with 1 mM CaCl2, 3 h at 4 °C; blot with anti-KSR1; settings: both partners purified
T1 construct: Calmodulin coupled to Sepharose; also called CaM; source: bought: GE Healthcare (17-0529-01), calmodulin-Sepharose beads

pure calmodulin = molecular target: T2, pure calmodulin (UniProt P0DP23 1-149); test: pull-down; 2 μg pure calmodulin in lysis buffer B with 1 mM Ca^2+ with GST-KSR1 constructs on glutathione-Sepharose beads, 3 h at 4 °C; blot with anti-calmodulin; settings: both partners purified
T2 construct: Pure calmodulin from Ocean Biologics; also called purified calmodulin; CaM; source: bought: Ocean Biologics

Binder	binding result [1]	binding result (pure calmodulin)
His-tagged full-length KSR1 (kinase suppressor of Ras1) (natural protein, Kinase suppressor of Ras1 (KSR1), full length; Plasmid pTrace-His-KSR1 was a gift (Piero Crespo); the construct is not described further; also called His-KSR1; purified KSR1; source: 90% pure) MDRAALRAAAMGEKKEGGGGGAAADGGAGAAVSRALQQCGQLQKLIDISIGSLRGLRTKCSVSNDLTQQEIRTLEAKLVKYICKQQQSKLSVTPSDRTAELNSYPRFSDWLYIFNVRPEVVQEIPQELTLDALLEMDEAKAKEMLRRWGASTEECSRLQQALTCLRKVTGLGGEHKMDSGWSSTDARDSSLGPPMDMLSSLGRAGASTQGPRSISVSALPASDSPVPGLSEGLSDSCIPLHTSGRLTPRALHSFITPPTTPQLRRHAKLKPPRTPPPPSRKVFQLLPSFPTLTRSKSHESQLGNRIDDVTPMKFELPHGSPQLVRRDIGLSVTHRFSTKSWLSQVCNVCQKSMIFGVKCKHCRLKCHNKCTKEAPACRITFLPLARLRRTESVPSDINNPVDRAAEPHFGTLPKALTKKEHPPAMNLDSSSNPSSTTSSTPSSPAPFLTSSNPSSATTPPNPSPGQRDSRFSFPDISACSQAAPLSSTADSTRLDDQPKTDVLGVHEAEAEEPEAGKSEAEDDEEDEVDDLPSSRRPWRGPISRKASQTSVYLQEWDIPFEQVELGEPIGQGRWGRVHRGRWHGEVAIRLLEMDGHNQDHLKLFKKEVMNYRQTRHENVVLFMGACMNPPHLAIITSFCKGRTLHSFVRDPKTSLDINKTRQIAQEIIKGMGYLHAKGIVHKDLKSKNVFYDNGKVVITDFGLFGISGVVREERRENQLKLSHDWLCYLAPEIVREMIPGRDEDQLPFSKAADVYAFGTVWYELQARDWPFKHQPAEALIWQIGSGEGVRRVLASVSLGKEVGEILSACWAFDLQERPSFSLLMDMLERLPKLNRRLSHPGHFWKSADINSSKVMPRFERFGLGTLESGNPKM	binds	–
GST-KSR1-M (amino acid residues 319–433) (domain or fragment, Vector pGEX2T-TEV; also called M-fragment; pGEX2T-TEV-KSR1-M; source: E. coli, isolated with glutathione-Sepharose beads) GSPQLVRRDIGLSVTHRFSTKSWLSQVCNVCQKSMIFGVKCKHCRLKCHNKCTKEAPACRITFLPLARLRRTESVPSDINNPVDRAAEPHFGTLPKALTKKEHPPAMNLDSSSNP	–	binds
